Here are results for six substances from US20210130436A1.

The target in one test is CD28 (human) (UniProt P10747). Briefly: cell-based or functional assay.
Another test concerns the target PD-L1 (human) (UniProt Q9NZQ7). The test is described as follows: cell-based or functional assay.

PD-L1 (human), sequence (Q9NZQ7 19-290): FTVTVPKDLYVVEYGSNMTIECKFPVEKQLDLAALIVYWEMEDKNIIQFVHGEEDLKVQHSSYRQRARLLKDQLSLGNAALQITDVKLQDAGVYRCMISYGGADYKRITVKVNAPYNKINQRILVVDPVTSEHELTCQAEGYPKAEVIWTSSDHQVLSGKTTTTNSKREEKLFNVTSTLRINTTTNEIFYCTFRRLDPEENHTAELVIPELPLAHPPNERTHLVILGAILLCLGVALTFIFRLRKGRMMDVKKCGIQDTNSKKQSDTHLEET

In the test with CD28 (human), “variant CD80 IgV-Fc (effector) E35D/M47I (Fc fusion)” came in with an IL-2 release, primary T cells; K562/OKT3 (No PD-L1); 1 nM of 11100; an IL-2 release, primary T cells; K562/OKT3 (No PD-L1); 10 nM of 21600; an IL-2 release, primary T cells; K562/OKT3 (No PD-L1); 100 nM of 27200; an RLU, Jurkat/IL2 reporter; K562/OKT3 aAPC, FcR Dependent Cross-Linking (No PD-L1); 0.6 nM of 1780 RLU. In the test with CD28 (human), this substance yielded an RLU, Jurkat/IL2 reporter; K562/OKT3 aAPC, FcR Dependent Cross-Linking (No PD-L1); 1.9 nM of 2130 RLU; an RLU, Jurkat/IL2 reporter; K562/OKT3 aAPC, FcR Dependent Cross-Linking (No PD-L1); 5.6 nM of 3650 RLU; an RLU, Jurkat/IL2 reporter; K562/OKT3 aAPC, FcR Dependent Cross-Linking (No PD-L1); 16.7 nM of 5790 RLU; an RLU, Jurkat/IL2 reporter; K562/OKT3 aAPC, FcR Dependent Cross-Linking (No PD-L1); 50 nM of 7140 RLU. Also, in the test with PD-L1 (human), the RLU, Jurkat/IL2 reporter; K562/OKT3/PD-L1 aAPC, Combination of FcR and/or PD-L1 Dependent Cross-Linking; 0.6 nM amounted to 2830 RLU; the RLU, Jurkat/IL2 reporter; K562/OKT3/PD-L1 aAPC, Combination of FcR and/or PD-L1 Dependent Cross-Linking; 1.9 nM came to 3600 RLU; the RLU, Jurkat/IL2 reporter; K562/OKT3/PD-L1 aAPC, Combination of FcR and/or PD-L1 Dependent Cross-Linking; 5.6 nM is 4700 RLU; the RLU, Jurkat/IL2 reporter; K562/OKT3/PD-L1 aAPC, Combination of FcR and/or PD-L1 Dependent Cross-Linking; 16.7 nM came out at 5320 RLU. In the test with PD-L1 (human), the RLU, Jurkat/IL2 reporter; K562/OKT3/PD-L1 aAPC, Combination of FcR and/or PD-L1 Dependent Cross-Linking; 50 nM came out at 5700 RLU.

In the test with CD28 (human), “variant CD80 IgV-Fc (effector) E35D/M47I/L70M (Fc fusion)” came in with an IL-2 release, primary T cells; K562/OKT3 (No PD-L1); 1 nM of 15700; an IL-2 release, primary T cells; K562/OKT3 (No PD-L1); 10 nM of 26000; an IL-2 release, primary T cells; K562/OKT3 (No PD-L1); 100 nM of 25300; an RLU, Jurkat/IL2 reporter; K562/OKT3 aAPC, FcR Dependent Cross-Linking (No PD-L1); 0.6 nM of 1610 RLU. In the test with CD28 (human), this substance registered an RLU, Jurkat/IL2 reporter; K562/OKT3 aAPC, FcR Dependent Cross-Linking (No PD-L1); 1.9 nM of 2520 RLU; an RLU, Jurkat/IL2 reporter; K562/OKT3 aAPC, FcR Dependent Cross-Linking (No PD-L1); 5.6 nM of 4230 RLU; an RLU, Jurkat/IL2 reporter; K562/OKT3 aAPC, FcR Dependent Cross-Linking (No PD-L1); 16.7 nM of 5370 RLU; an RLU, Jurkat/IL2 reporter; K562/OKT3 aAPC, FcR Dependent Cross-Linking (No PD-L1); 50 nM of 5780 RLU. Moreover, in the test with PD-L1 (human), the RLU, Jurkat/IL2 reporter; K562/OKT3/PD-L1 aAPC, Combination of FcR and/or PD-L1 Dependent Cross-Linking; 0.6 nM worked out at 2240 RLU; the RLU, Jurkat/IL2 reporter; K562/OKT3/PD-L1 aAPC, Combination of FcR and/or PD-L1 Dependent Cross-Linking; 1.9 nM came out at 2690 RLU; the RLU, Jurkat/IL2 reporter; K562/OKT3/PD-L1 aAPC, Combination of FcR and/or PD-L1 Dependent Cross-Linking; 5.6 nM amounted to 3650 RLU; the RLU, Jurkat/IL2 reporter; K562/OKT3/PD-L1 aAPC, Combination of FcR and/or PD-L1 Dependent Cross-Linking; 16.7 nM stood at 3910 RLU. Moreover, the RLU, Jurkat/IL2 reporter; K562/OKT3/PD-L1 aAPC, Combination of FcR and/or PD-L1 Dependent Cross-Linking; 50 nM with PD-L1 (human) came to 3870 RLU.

Regarding “variant CD80 IgV-Fc (effector) E35D/M47L (Fc fusion)”, in the test with CD28 (human), the IL-2 release, primary T cells; K562/OKT3 (No PD-L1); 1 nM came out at 14600; the IL-2 release, primary T cells; K562/OKT3 (No PD-L1); 10 nM stood at 23600; the IL-2 release, primary T cells; K562/OKT3 (No PD-L1); 100 nM was 26800; the RLU, Jurkat/IL2 reporter; K562/OKT3 aAPC, FcR Dependent Cross-Linking (No PD-L1); 0.6 nM is 2120 RLU. In the test with CD28 (human), the RLU, Jurkat/IL2 reporter; K562/OKT3 aAPC, FcR Dependent Cross-Linking (No PD-L1); 1.9 nM was determined as 3040 RLU; the RLU, Jurkat/IL2 reporter; K562/OKT3 aAPC, FcR Dependent Cross-Linking (No PD-L1); 5.6 nM turned out to be 5620 RLU; the RLU, Jurkat/IL2 reporter; K562/OKT3 aAPC, FcR Dependent Cross-Linking (No PD-L1); 16.7 nM came to 7740 RLU; the RLU, Jurkat/IL2 reporter; K562/OKT3 aAPC, FcR Dependent Cross-Linking (No PD-L1); 50 nM came out at 8680 RLU. In the test with PD-L1 (human), the RLU, Jurkat/IL2 reporter; K562/OKT3/PD-L1 aAPC, Combination of FcR and/or PD-L1 Dependent Cross-Linking; 0.6 nM was determined as 2780 RLU; the RLU, Jurkat/IL2 reporter; K562/OKT3/PD-L1 aAPC, Combination of FcR and/or PD-L1 Dependent Cross-Linking; 1.9 nM turned out to be 3850 RLU; the RLU, Jurkat/IL2 reporter; K562/OKT3/PD-L1 aAPC, Combination of FcR and/or PD-L1 Dependent Cross-Linking; 5.6 nM worked out at 4730 RLU; the RLU, Jurkat/IL2 reporter; K562/OKT3/PD-L1 aAPC, Combination of FcR and/or PD-L1 Dependent Cross-Linking; 16.7 nM worked out at 5410 RLU. The RLU, Jurkat/IL2 reporter; K562/OKT3/PD-L1 aAPC, Combination of FcR and/or PD-L1 Dependent Cross-Linking; 50 nM with PD-L1 (human) amounted to 5040 RLU.

Take “variant CD80 IgV-Fc (effector) E35G/K54E/A71D/L72P (Fc fusion)”: in the test with CD28 (human), the IL-2 release, primary T cells; K562/OKT3 (No PD-L1); 1 nM is 7030; the IL-2 release, primary T cells; K562/OKT3 (No PD-L1); 10 nM came to 7900; the RLU, Jurkat/IL2 reporter; K562/OKT3 aAPC, FcR Dependent Cross-Linking (No PD-L1); 0.6 nM amounted to 1340 RLU; the RLU, Jurkat/IL2 reporter; K562/OKT3 aAPC, FcR Dependent Cross-Linking (No PD-L1); 1.9 nM is 1370 RLU. In the test with CD28 (human), this substance yielded an RLU, Jurkat/IL2 reporter; K562/OKT3 aAPC, FcR Dependent Cross-Linking (No PD-L1); 5.6 nM of 1380 RLU; an RLU, Jurkat/IL2 reporter; K562/OKT3 aAPC, FcR Dependent Cross-Linking (No PD-L1); 16.7 nM of 1430 RLU; an RLU, Jurkat/IL2 reporter; K562/OKT3 aAPC, FcR Dependent Cross-Linking (No PD-L1); 50 nM of 1510 RLU. In the test with PD-L1 (human), the RLU, Jurkat/IL2 reporter; K562/OKT3/PD-L1 aAPC, Combination of FcR and/or PD-L1 Dependent Cross-Linking; 0.6 nM worked out at 689 RLU; the RLU, Jurkat/IL2 reporter; K562/OKT3/PD-L1 aAPC, Combination of FcR and/or PD-L1 Dependent Cross-Linking; 1.9 nM was 732 RLU; the RLU, Jurkat/IL2 reporter; K562/OKT3/PD-L1 aAPC, Combination of FcR and/or PD-L1 Dependent Cross-Linking; 5.6 nM came to 735 RLU; the RLU, Jurkat/IL2 reporter; K562/OKT3/PD-L1 aAPC, Combination of FcR and/or PD-L1 Dependent Cross-Linking; 16.7 nM is 701 RLU. In addition, in the test with PD-L1 (human), the RLU, Jurkat/IL2 reporter; K562/OKT3/PD-L1 aAPC, Combination of FcR and/or PD-L1 Dependent Cross-Linking; 50 nM worked out at 805 RLU.

In the test with CD28 (human), “variant CD80 IgV-Fc (effector) H18Y/A26T/E35D/A71D/L85Q (Fc fusion)” showed an IL-2 release, primary T cells; K562/OKT3 (No PD-L1); 10 nM of 20500; an IL-2 release, primary T cells; K562/OKT3 (No PD-L1); 100 nM of 20600; an RLU, Jurkat/IL2 reporter; K562/OKT3 aAPC, FcR Dependent Cross-Linking (No PD-L1); 0.6 nM of 2080 RLU; an RLU, Jurkat/IL2 reporter; K562/OKT3 aAPC, FcR Dependent Cross-Linking (No PD-L1); 1.9 nM of 2810 RLU. Besides, in the test with CD28 (human), the RLU, Jurkat/IL2 reporter; K562/OKT3 aAPC, FcR Dependent Cross-Linking (No PD-L1); 5.6 nM came to 4550 RLU; the RLU, Jurkat/IL2 reporter; K562/OKT3 aAPC, FcR Dependent Cross-Linking (No PD-L1); 16.7 nM amounted to 6960 RLU; the RLU, Jurkat/IL2 reporter; K562/OKT3 aAPC, FcR Dependent Cross-Linking (No PD-L1); 50 nM came to 8750 RLU. Besides, in the test with PD-L1 (human), the RLU, Jurkat/IL2 reporter; K562/OKT3/PD-L1 aAPC, Combination of FcR and/or PD-L1 Dependent Cross-Linking; 0.6 nM came to 1160 RLU; the RLU, Jurkat/IL2 reporter; K562/OKT3/PD-L1 aAPC, Combination of FcR and/or PD-L1 Dependent Cross-Linking; 1.9 nM amounted to 1820 RLU; the RLU, Jurkat/IL2 reporter; K562/OKT3/PD-L1 aAPC, Combination of FcR and/or PD-L1 Dependent Cross-Linking; 5.6 nM is 3120 RLU; the RLU, Jurkat/IL2 reporter; K562/OKT3/PD-L1 aAPC, Combination of FcR and/or PD-L1 Dependent Cross-Linking; 16.7 nM was found to be 4330 RLU. Moreover, the RLU, Jurkat/IL2 reporter; K562/OKT3/PD-L1 aAPC, Combination of FcR and/or PD-L1 Dependent Cross-Linking; 50 nM with PD-L1 (human) amounted to 5220 RLU.

With “variant CD80 IgV-Fc (inert) A26E/E35D/M47L/L85Q (Fc fusion)”, in the test with CD28 (human), the IL-2-luciferase RLU, Jurkat + CHO/OKT3/PD-L1 aAPC, 0.6 nM was found to be 509 RLU; the IL-2-luciferase RLU, Jurkat + CHO/OKT3/PD-L1 aAPC, 1.9 nM was 618 RLU; the IL-2-luciferase RLU, Jurkat + CHO/OKT3/PD-L1 aAPC, 5.6 nM turned out to be 886 RLU; the IL-2-luciferase RLU, Jurkat + CHO/OKT3/PD-L1 aAPC, 16.7 nM worked out at 1380 RLU. For the same substance, in the test with CD28 (human), the IL-2-luciferase RLU, Jurkat + CHO/OKT3/PD-L1 aAPC, 50 nM was 2000 RLU; the IL-2-luciferase RLU, Jurkat + CHO/OKT3 aAPC (no PD-L1), 5.6 nM stood at 458 RLU; the IL-2-luciferase RLU, Jurkat + CHO/OKT3 aAPC (no PD-L1), 16.7 nM is 415 RLU; the IL-2-luciferase RLU, Jurkat + CHO/OKT3 aAPC (no PD-L1), 50 nM was determined as 432 RLU. In the test with PD-L1 (human), this substance gave an IL-2 release, primary T cells; K562/OKT3/PD-L1; 1 nM of 72; an IL-2 release, primary T cells; K562/OKT3/PD-L1; 10 nM of 268; an IL-2 release, primary T cells; K562/OKT3/PD-L1; 100 nM of 1460.
